Source: patent US20210137911A1, “NOVEL CHRONOTHERAPY BASED ON CIRCADIAN RHYTHMS” (THE TRUSTEES OF THE UNIVERSITY OF PENNSYLVANIA, priority 2014, published 2021)

Assay: not given
Conditions: half-life of therapeutic compound as listed in Table 1; cited from earlier work

For O=C(O)c1cccnc1 [niacin, reference compound], which “½ Life” value is on record?
The value was 0.33 h.

Which “½ Life” value does the source give for OspA lipoprotein here?
The value was 1.2 h.

Same assay, conditions: half-life of top selling therapeutic compounds (Table 1); cited from earlier work

For Bleomycin, which “½ Life” value is on record?
Its value is 1.916 h.

With “Corticotropin (SYSMEHFRWGKPVGKKRRPVKVYPNGAEDESAEAFPLEF; Corticotropin; UniProt P01189 138-176, looked up)” as the molecule, how does the “½ Life” value read?
Its value is 0.25 h.

Which “½ Life” value does the source give for Denileukin diftitox here?
Its value is 1.166 h.

Same assay, conditions: in vivo; cited from earlier work

With Aldesleukin as the molecule, how does the “½ Life” value read?
Its value is 0.216 h.

For Alglucosidase alfa, which “½ Life” value is on record?
The value was 2.3 h.

With Anakinra as the molecule, how does the “½ Life” value read?
The value was 4 h.

Which “½ Life” value does the source give for Defibrotide here?
The value was 1 h.

With Drotrecogin alfa as the molecule, how does the “½ Life” value read?
Its value is 5.5 h.

For Enoxaparin, which “½ Life” value is on record?
Its value is 4.5 h.

With Galsulfase as the molecule, how does the “½ Life” value read?
Its value is 0.15 h.

Which “½ Life” value does the source give for Heparin here?
The value was 1.5 h.

For Insulin Detemir, which “½ Life” value is on record?
The value was 5 h.

Which “½ Life” value does the source give for Insulin Glulisine here?
The value was 0.7 h.

Which “½ Life” value does the source give for Insulin Lispro here?
The value was 1 h.

Which “½ Life” value does the source give for Interferon Alfa-2a, Recombinant here?
The value was 2 h.

Which “½ Life” value does the source give for Interferon alfacon-1 here?
Its value is 1.3 h.

With Leptin as the molecule, how does the “½ Life” value read?
Its value is 0.415 h.

Which “½ Life” value does the source give for Mecasermin here?
Its value is 2 h.

With Muromonab as the molecule, how does the “½ Life” value read?
The value was 0.8 h.

With Nesiritide as the molecule, how does the “½ Life” value read?
Its value is 0.3 h.

Which “½ Life” value does the source give for Nitroprusside here?
The value was 0.033 h.

Which “½ Life” value does the source give for Pegaptanib here?
Its value is 3 h.

With Pentosan Polysulfate as the molecule, how does the “½ Life” value read?
Its value is 4.8 h.

With Rituximab as the molecule, how does the “½ Life” value read?
The value was 0.8 h.

With Tinzaparin as the molecule, how does the “½ Life” value read?
The value was 1.366 h.

With Tositumomab as the molecule, how does the “½ Life” value read?
Its value is 0.8 h.

For Urokinase, which “½ Life” value is on record?
The value was 0.2 h.

Which “½ Life” value does the source give for Vitamin A here?
Its value is 1.9 h.

Same assay, conditions: see Table 1; cited from earlier work

For O=C(O)c1cccnc1 [niacin, reference compound], which half-life is on record?
The half-life was 19.8 min.

Assay: Trial of bedtime versus awakening administered Valsartan, blood pressure
Type: in vivo
Conditions: bedtime minus awakening
Excerpt: Taking an angiotensin receptor blocker (ARB) or an […] (ACE) inhibitor before bedtime is known to cause a drop in blood pressure. […] Thus, current treatment methods are insufficient to induce a dip in non-dippers.

Which “net blood pressure difference bedtime vs awakening, first value of printed pair” value does the source give for CCCCC(=O)N(Cc1ccc(-c2ccccc2-c2nnn[nH]2)cc1)[C@H](C(=O)O)C(C)C [Valsartan] here?
Its value is 8 mmHg.

What about the “net blood pressure difference bedtime vs awakening, second value of printed pair” value of the same molecule?
Its value is 6 mmHg.

Same assay, conditions: bedtime vs awakening group

Which “better result of bedtime group than the awakening group” value does the source give for CCCCC(=O)N(Cc1ccc(-c2ccccc2-c2nnn[nH]2)cc1)[C@H](C(=O)O)C(C)C [Valsartan] here?
The value was 10 mmHg.

Assay: not given
Conditions: cited from earlier work

For CCCCC(=O)N(Cc1ccc(-c2ccccc2-c2nnn[nH]2)cc1)[C@H](C(=O)O)C(C)C [Valsartan], which “time at which concentration in plasma reaches the maximum after administration” value is on record?
Its value is 2 to 4 h.
